Data published in the supplement of paper PMC10567573.

B1: CDC25A (parent)
chain: TVAGKHQDLKYISPEIMASVLNGK
B2: TEKT4 (parent)
chain: LREKLLEAEQSLRNLEDIHMSLEK

Variants of: B1
Assay: protein stability index of a GFP-peptide fusion (GPS, HEK-293T) (PSI 1-6); higher = more stable
Conditions: c terminus: a fixed tail appended
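Also: lentivirally expressed fusions sorted by FACS into six bins by GFP to DsRed ratio, PSI derived from sequencing read proportions per bin multiplied by bin number.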

Protein stability index, by site and new letter:
A3: Q 2.7; N 2.79; G 3.14; T 3.31; I 2.61; E 3.39; D 3.74; W 2.16; F 2.56; H 2.85; Y 2.79; R 2.85; V 3.38; C 2.47; P 3.52; K 3.41; M 2.82; S 2.93; L 2.69
G4: N 3.54; P 3.44; H 3.35; D 3.27; K 3.06; L 3.16; M 2.89; Q 3.42; F 2.38; I 2.68; E 3.78; C 2.82; A 2.82
V2: S 3.28; N 3.11; G 3.33; H 3.33; W 2.55; I 2.91; L 2.96; A 3.28; Q 3.35; P 3.51; F 2.94; D 3.89; T 3.41; Y 2.79; E 3.68; C 3.32; R 3.21; M 3.11; K 2.92
T1: Y 3.42; H 2.89; W 2.06; F 1.9; Q 3.22; S 3.14; G 3.06; N 3.69; A 3.23; E 3.45; I 2.6; M 2.34; D 3.29; P 3.34; L 2.15; V 2.52; C 3.07; K 3.17; R 2.52

Variants of: B2
Assay: as above
Conditions: c terminus: a fixed tail appended

Protein stability index of substitutions, site by site:
M20: E 2.17; L 2.58; D 2.71; K 2.07; F 1.72; A 3.28; W 2.55; G 3.51; I 2.86; Y 3.15; N 2.25; T 2.98
E23: R 3.15; C 4.07; H 2.21; S 2.15; Y 1.93; A 3.45; L 2.65; V 2.07
A8: D 2.86; E 3.99; N 4.59; C 1.64; H 3.67; Y 3.58; T 2.61; G 2.2; P 4.59; R 3.92; I 1.48; L 1.63; K 4.01
S11: G 2.28; Q 2.33; A 1.5; V 1.47; W 1.48; K 2.08
L6: G 2.65; F 2.34; W 2.23; P 5.19; E 2.84; I 1.86; D 3.54; V 2.65; S 4.23; A 3.11; Q 2.91; N 2.89
E9: D 3.4; W 2.06; N 3.15; I 1.75; R 3.25; L 2.77; Y 2.06; S 2.61; P 3.52; G 2.89; T 2.44; F 1.37; A 2.38; H 2.58
L1: Y 2.61; V 1.98; Q 4.67; G 4.38; T 4.24; E 5.12; W 1.92; H 3.92; P 4.12; K 4.27; I 1.82; D 5.15; R 3.52; M 3.12; S 4.82; F 1.74
Q10: H 2.23; W 1.98; C 3.01; G 2.71; S 2.79; L 3.22; P 4.65; Y 1.85; D 1.92; T 2.77; I 1.34
K4: Q 2.17; S 2.63; N 3.27; T 3.9; H 3.01; C 2.54; A 2.21; Y 2.33; I 2.36; E 3.17; P 3.54; F 1.43; R 2.88
R2: C 1.48; M 1.89; D 2.72; G 2.34; I 2.41; V 1.7; H 2.02; Q 1.9; K 3.61; Y 2.05; N 1.86; F 1.16
L15: R 2.38; N 2.65; S 3.36; M 2.56; I 2.64; G 2; Y 2.29; Q 2.64
I18: Q 2.62; F 3.02; C 2.63; K 3.16; D 3.33; E 1.69; N 3.43; R 2.63; V 3.21
E16: W 1.18; G 2.37; T 2.21; Q 2.15; R 2.12; M 1.93; S 2.25; C 1.33; V 2.06; N 1.94
E7: V 2.56; S 2.42; P 4.17; H 3.6; F 2.5; C 2.17; I 2.06; L 1.75; G 3.75; W 1.75; Y 2.08; N 2.39
L12: H 4.44; D 5.05; G 3.89; K 3.98; S 3.62; T 3.17; F 1.69; M 2.97; A 3.84; Y 2.03
L5: H 4.08; P 4.75; D 5.1; W 4.04; A 4.49; N 5.13; R 4.49; F 3.27; Y 3.86; E 5.05; I 2.72; M 3.2; G 4.83
N14: S 2.07; W 1.35; P 2.04; E 3.99; H 1.77; G 2.71; V 2.56; K 2.27
D17: H 2.29; L 1.89; N 1.62; M 2.42; G 2.81; T 2.27; W 1.76; I 1.58; S 2.33; P 2.7
H19: C 2.96; K 2.8; F 1.83; M 2.79; D 3.48; P 3.26; Q 3.91; A 1.76; T 2.63
E3: G 1.96; N 2.27; W 1.81; L 2.58; K 2.1; R 2.69; F 2.46; P 2.24; H 2.71; Q 2.82; A 2.29; C 1.96
S21: M 1.75; G 3.25; R 3.24; K 2.37; H 1.99; V 2.35; T 2.81; E 2.35; W 2.38; Q 1.92; D 1.9; F 2.63
L22: T 3.05; W 1.55; Y 2.08; N 3.22; Q 2.33; I 2.81; S 2.65; K 3.54; F 1.98; C 3.73; E 2.98; A 3.01; R 3.2; G 2.4
K24: F 1.25; N 2.13; R 2.44; L 1.93; S 2.35; C 2.09; T 2.98; G 2.52
R13: L 2.18; Q 3.43; F 2.11; Y 2.11; K 2.22; H 3.38; D 3.69; W 2.09; C 2.21; T 2.61; V 2.96; G 2.22
